Experimental data as given in the supplement of paper PMC11246515.
± gives the standard deviation of the averaged measurements.

Test: total protein half-life in vivo (active degradation + dilution); higher = more stable protein
[1] = E. coli NCM3722 delta-clpP delta-lon delta-hslV, growth: N-lim chemostat, doubling time 6 h
[2] = E. coli NCM3722 delta-clpP, growth: N-lim chemostat, doubling time 6 h
[3] = E. coli NCM3722 delta-hslV, growth: N-lim chemostat, doubling time 6 h
[4] = E. coli NCM3722 delta-lon, growth: N-lim chemostat, doubling time 6 h
[5] = E. coli NCM3722 delta-smpB, growth: N-lim chemostat, doubling time 6 h
[6] = wild type E. coli NCM3722, growth: C-lim chemostat, doubling time 3 h
[7] = wild type E. coli NCM3722, growth: C-lim chemostat, doubling time 6 h
[8] = wild type E. coli NCM3722, growth: C-lim chemostat, doubling time 12 h
[9] = wild type E. coli NCM3722, growth: N-lim chemostat, doubling time 6 h
[10] = wild type E. coli NCM3722, growth: N-lim chemostat, doubling time 12 h
[11] = wild type E. coli NCM3722, growth: P-lim chemostat, doubling time 6 h
[12] = wild type E. coli NCM3722, growth: P-lim chemostat, doubling time 12 h

Sequence | total protein half-life in vivo [1] [h] | total protein half-life in vivo [2] [h] | total protein half-life in vivo [3] [h] | total protein half-life in vivo [4] [h] | total protein half-life in vivo [5] [h] | total protein half-life in vivo [6] [h] | total protein half-life in vivo [7] [h] | total protein half-life in vivo [8] [h] | total protein half-life in vivo [9] [h] | total protein half-life in vivo [10] [h] | total protein half-life in vivo [11] [h] | total protein half-life in vivo [12] [h]
MLEEYRKHVAERAAEGIAPKPLDANQMAALVELLKNPPAGEEEFLLDLLTNRVPPGVDEAAYVKAGFLAAIAKGEAKSPLLTPEKAIELLGTMQGGYNIHPLIDALDDAKLAPIAAKALSHTLLMFDNFYDVEEKAKAGNEYAKQVMQSWADAEWFLNRPALAEKLTVTVFKVTGETNTDDLSPAPDAWSRPDIPLHALAMLKNAREGIEPDQPGVVGPIKQIEALQQKGFPLAYVGDVVGTGSSRKSATNSVLWFMGDDIPHVPNKRGGGLCLGGKIAPIFFNTMEDAGALPIEVDVSNLNMGDVIDVYPYKGEVRNHETGELLATFELKTDVLIDEVRAGGRIPLIIGRGLTTKAREALGLPHSDVFRQAKDVAESDRGFSLAQKMVGRACGVKGIRPGAYCEPKMTSVGSQDTTGPMTRDELKDLACLGFSADLVMQSFCHTAAYPKPVDVNTHHTLPDFIMNRGGVSLRPGDGVIHSWLNRMLLPDTVGTGGDSHTRFPIGISFPAGSGLVAFAAATGVMPLDMPESVLVRFKGKMQPGITLRDLVHAIPLYAIKQGLLTVEKKGKKNIFSGRILEIEGLPDLKVEQAFELTDASAERSAAGCTIKLNKEPIIEYLNSNIVLLKWMIAEGYGDRRTLERRIQGMEKWLANPELLEADADAEYAAVIDIDLADIKEPILCAPNDPDDARPLSAVQGEKIDEVFIGSCMTNIGHFRAAGKLLDAHKGQLPTRLWVAPPTRMDAAQLTEEGYYSVFGKSGARIEIPGCSLCMGNQARVADGATVVSTSTRNFPNRLGTGANVFLASAELAAVAALIGKLPTPEEYQTYVAQVDKTAVDTYRYLNFNQLSQYTEKADGVIFQTAV | 5.12 ± 0.25 | 3.86 ± 0.1 | 3.56 ± 0.021 | 3.3 ± 0.063 | 2.96 ± 0.046 | 2.579 ± 0.021 | 4.71 ± 0.057 | 7.2 ± 0.21 | 3.578 ± 0.02 | 4.92 ± 0.14 | 3.56 ± 0.094 | 5.84 ± 0.098
MSFLLPIQLFKILADETRLGIVLLLSELGELCVCDLCTALDQSQPKISRHLALLRESGLLLDRKQGKWVHYRLSPHIPAWAAKIIDEAWRCEQEKVQAIVRNLARQNCSGDSKNICS | 6.03 | 5.66 | – | 5.43 | 5.01 ± 0.46 | 2.68 | – | – | 4.89 | 9.59 | 5.5 | 9.37
MKKNSYLLSCLAIAVSSACHAEVLTYPDPLGSSQSDFGGTGLLQMPNARIAPEGEFSVNYRDNDQYRFYSTSVALFPWLEGTIRYTDVRTRKYSQWEDFSGDQSYKDKSFDFKLRLWEEGYWLPQVAFGKRDIAGTGLFDGEYLVASKQAGPFDFTLGMAWGYAGNAGNITNPFCRVSDKYCHRAESHDAGDISFSDIFRGPASIFGGIEYQTPWNPLRLKLEYDGNNYQNDFAGKLPQASHFNVGAVYRAASWADLNLSYERGNTLMFGFTLRTNFNDLRPALRDTPKPAYQPAPESEGLQYTTVANQLTALKYNAGFDAPEIQLRDKTLYMSGQQYKYRDSREAVDRANRILVNNLPQGVEKISVTQKREHMAMVTTETDVASLRKQLAGTAPGQSEPLQQQRVEAEDLSAFGRGYRIREDRFSYSFNPTLSQSLGGPEDFYMFQLGLMSSARYWFTDHLLLDGGIFTNIYNNYDKFKSSLLPADSTLPRVRTHIRDYVRNDVYLNNLQANYFADLGNGFYGQVYGGYLETMYAGVGSELLYRPLDACWALGVDVNYVKQRDWDNMMRFTDYSTPTGFVTAYWNPPTLNGVLMKLSVGQYLAKDKGATIDVAKRFDSGVAVGVWAAISNVSKDDYGEGGFSKGFYISIPFDLMTIGPNRNRAVVSWTPLTRDGGQMLSRKYQLYPMTAEREVPVGQ | 4.97 ± 0.12 | – | 6.08 ± 0.65 | – | – | 3.09 | – | 10.3 | 6.71 | – | – | > 16
MLKVEMLSTGDEVLHGQIVDTNAAWLADFFFHQGLPLSRRNTVGDNLDDLVTILRERSQHADVLIVNGGLGPTSDDLSALAAATAKGEGLVLHEAWLKEMERYFHERGRVMAPSNRKQAELPASAEFINNPVGTACGFAVQLNRCLMFFTPGVPSEFKVMVEHEILPRLRERFSLPQPPVCLRLTTFGRSESDLAQSLDTLQLPPGVTMGYRSSMPIIELKLTGPASEQQAMEKLWLDVKRVAGQSVIFEGTEGLPAQISRELQNRQFSLTLSEQFTGGLLALQLSRAGAPLLACEVVPSQEETLAQTAHWITERRANHFAGLALAVSGFENEHLNFALATPDGTFALRVRFSTTRYSLAIRQEVCAMMALNMLRRWLNGQDIASEHGWIEVVESMTLSV | 4.98 ± 0.18 | 4.36 ± 0.044 | 4.01 ± 0.17 | 4.79 ± 0.35 | 4.32 ± 0.093 | 3.098 ± 0.027 | 5.27 ± 0.91 | 9.19 ± 2.1 | 3.94 ± 0.2 | 6.9 ± 0.57 | 6.25 ± 0.51 | 11.2 ± 0.81
MSELKISPELLQISPEVQDALKNKKPVVALESTIISHGMPFPQNAQTAIEVEETIRKQGAVPATIAIIGGVMKVGLSKEEIELLGREGHNVTKVSRRDLPFVVAAGKNGATTVASTMIIAALAGIKVFATGGIGGVHRGAEHTFDISADLQELANTNVTVVCAGAKSILDLGLTTEYLETFGVPLIGYQTKALPAFFCRTSPFDVSIRLDSASEIARAMVVKWQSGLNGGLVVANPIPEQFAMPEHTINAAIDQAVAEAEAQGVIGKESTPFLLARVAELTGGDSLKSNIQLVFNNAILASEIAKEYQRLAG | – | – | – | – | 1.52 ± 0.068 | 2.56 ± 0.11 | 4.42 ± 0.53 | 6.33 ± 0.81 | – | – | – | 4.2
MESKRLDNAALAAGISPNYINAHGKPQSISAETKRRLLDAMHQRTATKVAVTPVPNVMVYTSGKKMPMVVEGSGEYSWLLTTEEGTQYKGHVTGGKAFNLPTKLPEGYHTLTLTQDDQRAHCRVIVAPKRCYEPQALLNKQKLWGACVQLYTLRSEKNWGIGDFGDLKAMLVDVAKRGGSFIGLNPIHALYPANPESASPYSPSSRRWLNVIYIDVNAVEDFHLSEEAQAWWQLPTTQQTLQQARDADWVDYSTVTALKMTALRMAWKGFAQRDDEQMAAFRQFVAEQGDSLFWQAAFDALHAQQVKEDEMRWGWPAWPEMYQNVDSPEVRQFCEEHRDDVDFYLWLQWLAYSQFAACWEISQGYEMPIGLYRDLAVGVAEGGAETWCDRELYCLKASVGAPPDILGPLGQNWGLPPMDPHIITARAYEPFIELLRANMQNCGALRIDHVMSMLRLWWIPYGETADQGAYVHYPVDDLLSILALESKRHRCMVIGEDLGTVPVEIVGKLRSSGVYSYKVLYFENDHEKTFRAPKAYPEQSMAVAATHDLPTLRGYWECGDLTLGKTLGLYPDEVVLRGLYQDRELAKQGLLDALHKYGCLPKRAGHKASLMSMTPTLNRGLQRYIADSNSALLGLQPEDWLDMAEPVNIPGTSYQYKNWRRKLSATLESMFADDGVNKLLKDLDRRRRAAAKKK | 6.24 ± 0.17 | 6.29 ± 0.23 | – | 4.12 ± 1.7 | 5.57 ± 0.12 | – | 6.27 ± 0.46 | 13.5 ± 1.4 | 6.03 ± 0.061 | 12.1 ± 0.58 | 5.25 ± 0.14 | 10.3 ± 0.19
